Substrate in the data set: NCCc1ccc(O)c(O)c1
Description: cells, lysate or membranes. The conditions noted are these: other: HEK293S cells; 14C-DA 0.3–60 μM; s.e.m.; pH 7.4.

B1: dDATwt (Drosophila melanogaster) (protein)
chain: MSPTGHISKSKTPTPHDNDNNSISDERETWSGKVDFLLSVIGFAVDLANVWRFPYLCYKNGGGAFLVPYGIMLVVGGIPLFYMELALGQHNRKGAITCWGRLVPLFKGIGYAVVLIAFYVDFYYNVIIAWSLRFFFASFTNSLPWTSCNNIWNTPNCRPFESQNASRVPVIGNYSDLYAMGNQSLLYNETYMNGSSLDTSAVGHVEGFQSAASEYFNRYILELNRSEGIHDLGAIKWDMALCLLIVYLICYFSLWKGISTSGKVVWFTALFPYAVLLILLIRGLTLPGSFLGIQYYLTPNFSAIYKAEVWVDAATQVFFSLGPGFGVLLAYASYNKYHNNVYKDALLTSFINSATSFIAGFVIFSVLGYMAHTLGVRIEDVATEGPGLVFVVYPAAIATMPASTFWALIFFMMLLTLGLDSSFGGSEAIITALSDEFPKIKRNRELFVAGLFSLYFVVGLASCTQGGFYFFHLLDRYAAGYSILVAVFFEAIAVSWIYGTNRFSEDIRDMIGFPPGRYWQVCWRFVAPIFLLFITVYGLIGYEPLTYADYVYPSWANALGWCIAGSSVVMIPAVAIFKLLSTPGSLRQRFTILTTPWRDQQSMAMVLNGVTTEVTVVRLTDTETAKEPVDV
One may read the Km as the concentration of substrate that gives half-maximal velocity. With B1, the Michaelis constant (Km) was found to be 2.1 ± 0.7 µM.

Source of the values: publication PMC4469479.
